We go through 19 molecules from patent US20260373285 (published 2026).

Read-outs that look alike come from different tables or passages of the source.

The target of one assay is hPD-L1(ECD)-His (human, UniProt Q9NZQ7). The assay can be described thus: SPR. (In general: SPR reads the build-up and loss of mass on a sensor chip optically.)
In assay [1] the target is T1, human Trop-2 (His) (human, UniProt P09758).
T1 chain: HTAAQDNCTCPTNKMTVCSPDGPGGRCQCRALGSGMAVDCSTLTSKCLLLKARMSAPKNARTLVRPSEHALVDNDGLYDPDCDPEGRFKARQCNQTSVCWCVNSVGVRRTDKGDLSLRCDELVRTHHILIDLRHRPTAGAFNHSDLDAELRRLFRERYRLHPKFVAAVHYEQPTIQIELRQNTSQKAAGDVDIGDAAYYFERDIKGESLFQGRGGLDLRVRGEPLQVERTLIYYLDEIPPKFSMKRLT
The assay can be described thus: ELISA.

Assay [2] deals with T1, human Trop-2 (His). The assay can be described thus: SPR.
The target in assay [3] is T1, human Trop-2 (His). The assay can be described thus: SPR.
For assay [4], the target named is T2, human Trop-2 on MDA-MB-468 cells (human, UniProt P09758).
T2 chain: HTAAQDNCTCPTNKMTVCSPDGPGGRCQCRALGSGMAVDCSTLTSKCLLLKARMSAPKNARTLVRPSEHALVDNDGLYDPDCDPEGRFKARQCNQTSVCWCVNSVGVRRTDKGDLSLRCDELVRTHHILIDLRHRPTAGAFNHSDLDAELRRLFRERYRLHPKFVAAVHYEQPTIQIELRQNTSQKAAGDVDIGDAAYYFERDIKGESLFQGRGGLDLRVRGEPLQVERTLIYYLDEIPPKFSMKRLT
The assay can be described thus: FACS. (A flow cytometer gives signals particle by particle.)

Assay [5] deals with T1, human Trop-2 (His). The assay can be described thus: SPR.
Assay [6] addresses T1, human Trop-2 (His). The assay can be described thus: SPR.
The target in assay [7] is T1, human Trop-2 (His). The assay can be described thus: SPR.

hPD-L1(ECD)-His, sequence (Q9NZQ7 19-238): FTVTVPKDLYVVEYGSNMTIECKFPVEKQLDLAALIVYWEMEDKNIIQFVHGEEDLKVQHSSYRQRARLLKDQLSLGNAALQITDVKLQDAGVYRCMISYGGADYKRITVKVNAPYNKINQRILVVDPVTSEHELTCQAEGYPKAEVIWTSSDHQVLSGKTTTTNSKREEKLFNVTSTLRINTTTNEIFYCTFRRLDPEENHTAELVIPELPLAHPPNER

B1: ALGA105S-ADC PD-L1 arm (antibody, V domains shown)
VH: EVQLVQSGAEVKKPGATVKISCKVSGFNIEDTYIYWVQQAPGKGLEWMGWIDPANYNTKYDPRFQDRVTITVDTSTDTAYMELSSLRSEDTAVYYCARGLRLLMDYWGQGTTVTVSS
VL: DIQLTQSPSFLSASVGDRVTITCKASQNVHTSLAWYQQKPGKSPKLLIYLASNRHTGVPSRFSGSGSGTEFTLTISSLQPEDFATYYCLQHWNYPLTFGQGTKLEIKR
modifications: exatecan drug-linker conjugate; full fusion SEQ67:SEQ68
In the case of B1, in the assay with hPD-L1(ECD)-His, the affinity, expressed as Kd, was 0.764 nM.

B2: ALGA105X-ADC PD-L1 arm (antibody, V domains shown)
VH: EVQLVQSGAEVKKPGATVKISCKVSGFNIEDTYIYWVQQAPGKGLEWMGWIDPANYNTKYDPRFQDRVTITVDTSTDTAYMELSSLRSEDTAVYYCARGLRLLMDYWGQGTTVTVSS
VL: DIQLTQSPSFLSASVGDRVTITCKASQNVHTSLAWYQQKPGKSPKLLIYLASNRHTGVPSRFSGSGSGTEFTLTISSLQPEDFATYYCLQHWNYPLTFGQGTKLEIKR
modifications: exatecan drug-linker conjugate; full fusion SEQ69:SEQ70
Turning to B2, the Kd (as a rule, the constant that tells how readily two partners part at equilibrium) with hPD-L1(ECD)-His came out at 0.652 nM.

B3: Trop-2-B-16 (antibody, V domains shown)
VH: EVQVVESGGGLVQPGGSLRLSCTAPERIFSIYNMGWYRQAPGKEREWVAFLMEGGRIEYADSVKGRFTISRDNAKSTVYLQMNNLNAEDAAVYYCNAGGRSGYWGKGTLVTVSS
Regarding B3, the EC50 (usually the concentration at which the effect is half-maximal) with human Trop-2 (His) [1] turned out to be 0.0166 mg/L. This molecule displayed a Kd with human Trop-2 (His) [2] of 5.21 nM.

B4: ALGA105N Trop-2 arm (antibody, V domains shown)
V domain 1: EVQVVESGGGLVQPGGSLRLSCATSGYIFSNSGMGWYRQAPGKQRELVAAISSGGTTHYADSVKGRFTISRDNSKNTVYLQMNSLRAEDTAVYYCNGDRYYSGTDVFGSWGQGTLVTVSS
V domain 2: EVQVVESGGGLVQPGGSLRLSCTAPERIFSIYNMGWYRQAPGKEREWVAFLMEGGRIEYADSVKGRFTISRDNAKSTVYLQMNNLNAEDAAVYYCNAGGRSGYWGKGTLVTVSS
Consider B4, for which, in the assay with human Trop-2 (His) [3], the Kd is 0.668 nM.

B5: Trop-2-A-258hz5 (antibody, V domains shown)
VH: QVQLVESGGGLVQPGGSLRLSCAASDRTFSEYNADWFRQAPGKEREFVAAITWSGKNTRYADSVKGRFTVSRDNSKNTVYLQMNSLRPADTAVYYCATDRWWAAGNWDGVDYWGQGTLVTVSS
In assay [4], B5 came in with a concentration for a half-maximal effect (EC50) of 0.279 mg/L. The Kd with human Trop-2 (His) [5] was 68.9 nM.

B6: Trop-2-A-258hz7 (antibody, V domains shown)
VH: QVQLVESGGGLVQPGGSLRLSCAASDRTFSEYNADWFRQAPGKEREFVAAITWSGKNTRYADSVKGRFTVSRDNSKNTVYLQMNSLRAEDTAVYYCATDRWWAAGNWDGVDYWGQGTLVTVSS
With B6, in assay [4], a half-maximal response (EC50) required 0.227 mg/L. The Kd with human Trop-2 (His) [5] is 74.7 nM.

B7: ALGA105S-ADC Trop-2 arm (antibody, V domains shown)
V domain 1: EVQVVESGGGLVQPGGSLRLSCATSGYIFSNSGMGWYRQAPGKQRELVAAISSGGTTHYADSVKGRFTISRDNSKNTVYLQMNSLRAEDTAVYYCNGDRYYSGTDVFGSWGQGTLVTVSS
V domain 2: QVQLVQSGGGLVQPGGSLRLSCAASDRTFSEYNADWFRQAPGKEREFVAAITWSGKNTRYADSVKGRFTVSRDNSKNTVYLQMNSLRAEDTAVYYCATDRWWAAGNWDGVDYWGQGTLVTVSS
modifications: exatecan drug-linker conjugate; full fusion SEQ67
Molecule B7 had a Kd with human Trop-2 (His) [6] of 2.88 nM.

B8: ALGA105T Trop-2 arm (antibody, V domains shown)
V domain 1: QVQLVQSGGGLVQPGGSLRLSCAASDRTFSEYNADWFRQAPGKEREFVAAITWSGKNTRYADSVKGRFTVSRDNSKNTVYLQMNSLRAEDTAVYYCATDRWWAAGNWDGVDYWGQGTLVTVSS
V domain 2: EVQVVESGGGLVQPGGSLRLSCATSGYIFSNSGMGWYRQAPGKQRELVAAISSGGTTHYADSVKGRFTISRDNSKNTVYLQMNSLRAEDTAVYYCNGDRYYSGTDVFGSWGQGTLVTVSS
As to B8, the Kd with human Trop-2 (His) [3] turned out to be 2.76 nM.

B9: ALGA105X-ADC Trop-2 arm (antibody, V domains shown)
V domain 1: EVQVVESGGGLVQPGGSLRLSCATSGYIFSNSGMGWYRQAPGKQRELVAAISSGGTTHYADSVKGRFTISRDNSKNTVYLQMNSLRAEDTAVYYCNGDRYYSGTDVFGSWGQGTLVTVSS
V domain 2: QVQLVQSGGGLVQPGGSLRLSCAASDRTFSEYNADWFRQAPGKEREFVAAITWSGKNTRYADSVKGRFTVSRDNSKNTVYLQMNSLRAEDTAVYYCATDRWWAAGNWDGVDYWGQGTLVTVSS
modifications: exatecan drug-linker conjugate; full fusion SEQ69
In turn, B9 came in with an equilibrium dissociation constant (Kd) with human Trop-2 (His) [6] of 3.33 nM.

B10: Trop-2-A-258 (antibody, V domains shown)
VH: QVQLVESGGGLVQAGGSLRLSCAASDRTFSEYNADWFRQAPGKEREFVAAITWSGKNTRYADSVKGRFTVSRDNAKNTVYLQMNSLKPEDTAVYYCATDRWWAAGNWDGVDYWGKGTLVTVSS
With B10, the concentration for a half-maximal effect (EC50) with human Trop-2 (His) [1] was determined as 0.00557 mg/L; in assay [4], 0.34 mg/L. The figures for the Kd with human Trop-2 (His) [2] and in the assay with human Trop-2 (His) [5] were 59.2 nM and 64.6 nM, respectively.

B11: ALGA105O Trop-2 arm (antibody, V domains shown)
V domain 1: EVQVVESGGGLVQPGGSLRLSCATSGYIFSNSGMGWYRQAPGKQRELVAAISSGGTTHYADSVKGRFTISRDNSKNTVYLQMNSLRAEDTAVYYCNGDRYYSGTDVFGSWGQGTLVTVSS
V domain 2: QVQLVESGGGLVQAGGSLRLSCAASDRTFSEYNADWFRQAPGKEREFVAAITWSGKNTRYADSVKGRFTVSRDNAKNTVYLQMNSLKPEDTAVYYCATDRWWAAGNWDGVDYWGKGTLVTVSS
B11 gave an equilibrium dissociation constant (Kd) with human Trop-2 (His) [3] of 2.22 nM.

B12: ALGA105S Trop-2 arm (antibody, V domains shown)
V domain 1: EVQVVESGGGLVQPGGSLRLSCATSGYIFSNSGMGWYRQAPGKQRELVAAISSGGTTHYADSVKGRFTISRDNSKNTVYLQMNSLRAEDTAVYYCNGDRYYSGTDVFGSWGQGTLVTVSS
V domain 2: QVQLVQSGGGLVQPGGSLRLSCAASDRTFSEYNADWFRQAPGKEREFVAAITWSGKNTRYADSVKGRFTVSRDNSKNTVYLQMNSLRAEDTAVYYCATDRWWAAGNWDGVDYWGQGTLVTVSS
On to B12, for which the Kd is 2.75 nM in the assay with human Trop-2 (His) [6] and 2.44 nM with human Trop-2 (His) [3].

B13: Trop-2-A-258hz2 (antibody, V domains shown)
VH: QVQLVQSGGGLVQPGGSLRLSCAASDRTFSEYNADWFRQAPGKEREFVAAITWSGKNTRYADSVKGRFTVSRDNSKNTVYLQMNSLRAEDTAVYYCATDRWWAAGNWDGVDYWGQGTLVTVSS
In assay [4], B13 gave a half-maximal effective concentration (EC50) of 0.176 mg/L. The molecule further came in with a Kd with human Trop-2 (His) [5] of 75.5 nM.

B14: Trop-2-A-258hz3 (antibody, V domains shown)
VH: QVQLVESGGGLVQPGGSLRLSCAASDRTFSEYNADWFRQAPGKEREFVAAITWSGKNTRYADSVKGRFTVSRDNSKNTVYLQMNSLRAEDTAVYYCATDRWWAAGNWSGVDFWGQGTLVTVSS
Consider B14, for which the EC50 in assay [4] turned out to be 8.7 mg/L. This molecule also gave a Kd with human Trop-2 (His) [5] of 99.2 nM.

B15: ALGA105X Trop-2 arm (antibody, V domains shown)
V domain 1: EVQVVESGGGLVQPGGSLRLSCATSGYIFSNSGMGWYRQAPGKQRELVAAISSGGTTHYADSVKGRFTISRDNSKNTVYLQMNSLRAEDTAVYYCNGDRYYSGTDVFGSWGQGTLVTVSS
V domain 2: QVQLVQSGGGLVQPGGSLRLSCAASDRTFSEYNADWFRQAPGKEREFVAAITWSGKNTRYADSVKGRFTVSRDNSKNTVYLQMNSLRAEDTAVYYCATDRWWAAGNWDGVDYWGQGTLVTVSS
With B15, the Kd with human Trop-2 (His) [6] and with human Trop-2 (His) [3] was 3.43 nM throughout.

B16: Datopotamab (ALGA106B) (antibody, V domains shown)
VH: QVQLVQSGAEVKKPGASVKVSCKASGYTFTTAGMQWVRQAPGQGLEWMGWINTHSGVPKYAEDFKGRVTISADTSTSTAYLQLSSLKSEDTAVYYCARSGFGSSYWYFDVWGQGTLVTVSS
VL: DIQMTQSPSSLSASVGDRVTITCKASQDVSTAVAWYQQKPGKAPKLLIYSASYRYTGVPSRFSGSGSGTDFTLTISSLQPEDFAVYYCQQHYITPLTFGQGTKLEIKR
Consider B16, for which the Kd worked out at 15.4 nM in the assay with human Trop-2 (His) [7], 22.5 nM in the assay with human Trop-2 (His) [3], 23.5 nM in the assay with human Trop-2 (His) [2] and 28.3 nM with human Trop-2 (His) [5]. The EC50 in the assay with human Trop-2 (His) [1] stood at 0.0507 mg/L; in assay [4], 0.827 mg/L.

B17: Sacituzumab (ALGA106A) (antibody, V domains shown)
VH: QVQLQQSGSELKKPGASVKVSCKASGYTFTNYGMNWVKQAPGQGLKWMGWINTYTGEPTYTDDFKGRFAFSLDTSVSTAYLQISSLKADDTAVYFCARGGFGSSYWYFDVWGQGSLVTVSS
VL: DIQLTQSPSSLSASVGDRVSITCKASQDVSIAVAWYQQKPGKAPKLLIYSASYRYTGVPDRFSGSGSGTDFTLTISSLQPEDFAVYYCQQHYITPLTFGAGTKVEIKR
Turning to B17, the Kd in the assay with human Trop-2 (His) [7] and in the assay with human Trop-2 (His) [2] was 0.859 nM throughout. For the same molecule, the EC50 with human Trop-2 (His) [1] stood at 0.027 mg/L; in assay [4] it was 0.151 mg/L.

B18: Trop-2-B-YC-82 (antibody, V domains shown)
VH: EVQVVESGGGLVQPGGSLRLSCATSGYIFSNSGMGWYRQAPGKQRELVAAISSGGTTHYADSVKGRFTISRDNAKSTVYLQMNSLKPEDTAVYYCNGDRYYSGTDVFGSWGQGTQVTVSS
B18: the Kd with human Trop-2 (His) [7] and with human Trop-2 (His) [2] was 20.1 nM each time.

B19: ALGA105M Trop-2 arm (antibody, V domains shown)
V domain 1: EVQVVESGGGLVQPGGSLRLSCATSGYIFSNSGMGWYRQAPGKQRELVAAISSGGTTHYADSVKGRFTISRDNSKNTVYLQMNSLRAEDTAVYYCNGDRYYSGTDVFGSWGQGTLVTVSS
V domain 2: EVQVVESGGGLVQPGGSLRLSCATSGYIFSNSGMGWYRQAPGKQRELVAAISSGGTTHYADSVKGRFTISRDNSKNTVYLQMNSLRAEDTAVYYCNGDRYYSGTDVFGSWGQGTLVTVSS
For B19, in the assay with human Trop-2 (His) [3], the Kd came to 99.4 nM.
